Assay results taken from patent US20150247163.

How the values were obtained:
[1] = molecular target: T1, PBS1^TCS-HA (PBS1 in which the seven amino acids flanking the AvrPphB cleavage site are replaced with a TEV cleavage site, fused to 3xHA)
T1 chain: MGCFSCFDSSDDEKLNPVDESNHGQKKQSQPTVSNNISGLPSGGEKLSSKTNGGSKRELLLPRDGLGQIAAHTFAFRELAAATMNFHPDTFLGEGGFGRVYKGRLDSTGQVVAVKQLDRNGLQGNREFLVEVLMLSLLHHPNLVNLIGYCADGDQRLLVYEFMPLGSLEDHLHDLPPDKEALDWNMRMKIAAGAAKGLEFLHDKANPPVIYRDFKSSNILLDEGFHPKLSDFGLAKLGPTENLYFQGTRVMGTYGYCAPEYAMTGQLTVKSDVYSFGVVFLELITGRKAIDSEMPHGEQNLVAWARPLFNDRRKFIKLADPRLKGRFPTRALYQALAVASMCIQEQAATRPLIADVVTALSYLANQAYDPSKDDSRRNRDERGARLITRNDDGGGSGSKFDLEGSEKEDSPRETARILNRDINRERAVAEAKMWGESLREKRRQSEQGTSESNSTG

[2] = molecular target: T2, wild-type PBS1 (AvrPphB susceptible 1), Q9FE20
T2 chain: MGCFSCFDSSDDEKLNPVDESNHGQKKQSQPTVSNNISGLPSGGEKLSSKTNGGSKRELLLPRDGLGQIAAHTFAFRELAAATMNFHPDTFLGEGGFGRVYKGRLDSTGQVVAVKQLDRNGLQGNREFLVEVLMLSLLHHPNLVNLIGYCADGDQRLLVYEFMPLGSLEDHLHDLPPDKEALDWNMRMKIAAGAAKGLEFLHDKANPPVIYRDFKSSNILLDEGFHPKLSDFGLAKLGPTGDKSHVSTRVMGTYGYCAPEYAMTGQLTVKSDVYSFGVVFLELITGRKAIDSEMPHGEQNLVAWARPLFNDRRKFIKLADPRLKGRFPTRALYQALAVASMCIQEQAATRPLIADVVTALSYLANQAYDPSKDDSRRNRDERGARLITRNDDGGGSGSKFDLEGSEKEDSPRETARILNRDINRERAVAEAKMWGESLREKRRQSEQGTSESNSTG

[3] = molecular target: T3, PBS1^RCS2-HA (PBS1 in which the AvrPphB cleavage site GDKSHVS is replaced with the RIN4 cleavage site 2 VPKFGDW, fused to a C-terminal 3xHA epitope)
T3 chain: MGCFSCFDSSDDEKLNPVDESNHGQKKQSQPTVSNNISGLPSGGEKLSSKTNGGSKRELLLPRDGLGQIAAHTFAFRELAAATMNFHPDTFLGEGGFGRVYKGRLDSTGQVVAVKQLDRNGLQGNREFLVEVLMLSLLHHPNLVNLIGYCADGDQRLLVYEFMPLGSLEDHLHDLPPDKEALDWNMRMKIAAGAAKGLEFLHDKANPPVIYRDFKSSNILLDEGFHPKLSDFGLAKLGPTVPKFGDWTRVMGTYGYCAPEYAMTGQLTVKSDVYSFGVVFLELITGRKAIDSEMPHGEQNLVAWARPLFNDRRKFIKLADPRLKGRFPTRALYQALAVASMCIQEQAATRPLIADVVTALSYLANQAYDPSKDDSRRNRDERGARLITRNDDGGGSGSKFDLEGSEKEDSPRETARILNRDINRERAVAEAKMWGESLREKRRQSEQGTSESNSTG

B1: TEV protease (NIa protease of Tobacco Etch Virus) fused to 5xMyc (protein)
chain: GESLFKGPRDYNPISSTICHLTNESDGHTTSLYGIGFGPFIITNKHLFRRNNGTLLVQSLHGVFKVKNTTTLQQHLIDGRDMIIIRMPKDFPPFPQKLKFREPQREERICLVTTNFQTKSMSSMVSDTSCTFPSSDGIFWKHWIQTKDGQCGSPLVSTRDGFIVGIHSASNFTNTNNYFTSVPKNFMELLTNQEAQQWVSGWRLNADSVLWGGHKVFMSKPEEPFQPVKEATQLMNELVYSQ
[1]
  cleavage by immunoblot, 6 hours post induction: TEV protease cleaved PBS1^TCS 6 hours post induction
[2]
  cleavage by immunoblot: TEV protease did not cleave wild-type PBS1

B2: AvrRpt2 (Example 1 pTA7002 construct; also as delivered by P. syringae DC3000(avrRpt2)) (protein)
chain: MKIAPVAINHSPLSREVPSHAAPTQAKQTNLQSEAGDLDARKSSASSPETRALLATKTVLGRHKIEVPAFGGWFKKKSSKHETGGSSANADSSSVASDSTEKPLFRLTHVPYVSQGNERMGCWYACARMVGHSVEAGPRLGLPELYEGREGPAGLQDFSDVERFIHNEGLTRVDLPDNERFTHEELGALLYKHGPIIFGWKTPNDSWHMSVLTGVDKETSSITFHDPRQGPDLAMPLDYFNQRLAWQVPHAMLYR
[3]
  cleavage product by anti-HA immunoprecipitation and immunoblot, transgenic Arabidopsis line #5, 12 hours after inoculation: a cleavage product of PBS1^RCS2 was detected in transgenic line #5 twelve hours after inoculation with DC3000(avrRpt2), but not with DC3000 lacking avrRpt2

B3: AvrRpt2 fused to 5xMyc (Example 5 construct) (protein)
chain: MKIAPVAINHSPLSREVPSHAAPTQAKQTNLQSEAGDLDARKSSASSPETRALLATKTVLGRHKIEVPAFGGWFKKKSSKHETGGSSANADSSSVASDSTEKPLFRLTHVPYVSQGNERMGCWYACARMVGHSVEAGPRLGLPELYEGREGPAGLQDFSDVERFIHNEGLTRVDLPDNERFTHEELGALLYKHGPIIFGWKTPNDSWHMSVLTGVDKETSSITFHDPRQGPDLAMPLDYFNQRLAWQVPHAMLYR
[3]
  cleavage by immunoblot, 6 hours post-induction: AvrRpt2 cleaved PBS1^RCS2 at 6 hours post-induction
  cleavage by immunoblot, 24 hours post-induction: At 24 hours post-induction, AvrRpt2-induced cleavage was increased

B4: C122A (protease-deficient mutant form of AvrRpt2) fused to 5xMyc (protein)
chain: MKIAPVAINHSPLSREVPSHAAPTQAKQTNLQSEAGDLDARKSSASSPETRALLATKTVLGRHKIEVPAFGGWFKKKSSKHETGGSSANADSSSVASDSTEKPLFRLTHVPYVSQGNERMGAWYACARMVGHSVEAGPRLGLPELYEGREGPAGLQDFSDVERFIHNEGLTRVDLPDNERFTHEELGALLYKHGPIIFGWKTPNDSWHMSVLTGVDKETSSITFHDPRQGPDLAMPLDYFNQRLAWQVPHAMLYR
[3]
  cleavage by immunoblot, 24 hours post-induction: even C122A induced small amounts of cleavage
